Here are results for 2 molecules from patent US8158376B2, “Bisubstrate fluorescent probe binding to protein kinases” (University of Tartu, priority 2006, dated 2012).

One may read the residual activity as the share of the control activity or signal that is left under treatment. A lower residual activity goes with a large loss of activity. Broadly, the pIC50 is the negative decadic logarithm of the IC50, by convention in mol/L. The pKd is −log10 of the Kd, conventionally taken in molar units. Broadly, the pKi is the negative decadic logarithm of the Ki, by convention in mol/L.

SMILES strings stand for the structures. pIC50, pKd, pKi: −log10 of the molar value.

The target of one data set is PKBb (Homo sapiens, UniProt P31751). Nature of the data set: Kinase selectivity panel, residual activity. It is filed as biochemical. The following applies: 1 μM compound, 50 μM ATP, 30° C. How it is done: (§1) The assay of protein kinases was performed at 30° C. as described previously [Davies et al., Biochem. J. 351 (2000) 95; Murray et al., Biochem. J. 384 (2004) 477]. The results of the testing are expressed as the % of residual activity of the kinase in the presence of the inhibitor at 1 micromolar concentration.
Sequence of PKBb (P31751 whole entry): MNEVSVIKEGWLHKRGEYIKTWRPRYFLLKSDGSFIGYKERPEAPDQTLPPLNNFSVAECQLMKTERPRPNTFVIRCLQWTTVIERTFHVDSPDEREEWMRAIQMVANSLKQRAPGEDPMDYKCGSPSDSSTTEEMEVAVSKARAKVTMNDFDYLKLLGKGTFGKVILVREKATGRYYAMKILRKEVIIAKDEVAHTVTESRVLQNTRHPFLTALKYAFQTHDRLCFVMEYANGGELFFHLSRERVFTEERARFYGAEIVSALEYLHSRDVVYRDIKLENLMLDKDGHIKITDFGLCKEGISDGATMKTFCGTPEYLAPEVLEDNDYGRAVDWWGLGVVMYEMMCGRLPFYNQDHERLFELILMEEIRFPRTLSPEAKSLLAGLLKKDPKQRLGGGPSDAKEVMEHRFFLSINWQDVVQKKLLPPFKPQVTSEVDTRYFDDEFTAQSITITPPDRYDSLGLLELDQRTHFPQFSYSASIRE

A further data set has as its target PKBΔph (Homo sapiens, UniProt P31749). Nature of the data set: Kinase selectivity panel, residual activity. It counts as biochemical. The following applies: 1 μM compound, 5 μM ATP, 30° C. On the procedure:
as §1

Another data set deals with PRK2 (Homo sapiens, UniProt Q16513). Nature of the data set: Kinase selectivity panel, residual activity. It is filed as biochemical. How it is done: as §1
Sequence of PRK2 (Q16513 whole entry): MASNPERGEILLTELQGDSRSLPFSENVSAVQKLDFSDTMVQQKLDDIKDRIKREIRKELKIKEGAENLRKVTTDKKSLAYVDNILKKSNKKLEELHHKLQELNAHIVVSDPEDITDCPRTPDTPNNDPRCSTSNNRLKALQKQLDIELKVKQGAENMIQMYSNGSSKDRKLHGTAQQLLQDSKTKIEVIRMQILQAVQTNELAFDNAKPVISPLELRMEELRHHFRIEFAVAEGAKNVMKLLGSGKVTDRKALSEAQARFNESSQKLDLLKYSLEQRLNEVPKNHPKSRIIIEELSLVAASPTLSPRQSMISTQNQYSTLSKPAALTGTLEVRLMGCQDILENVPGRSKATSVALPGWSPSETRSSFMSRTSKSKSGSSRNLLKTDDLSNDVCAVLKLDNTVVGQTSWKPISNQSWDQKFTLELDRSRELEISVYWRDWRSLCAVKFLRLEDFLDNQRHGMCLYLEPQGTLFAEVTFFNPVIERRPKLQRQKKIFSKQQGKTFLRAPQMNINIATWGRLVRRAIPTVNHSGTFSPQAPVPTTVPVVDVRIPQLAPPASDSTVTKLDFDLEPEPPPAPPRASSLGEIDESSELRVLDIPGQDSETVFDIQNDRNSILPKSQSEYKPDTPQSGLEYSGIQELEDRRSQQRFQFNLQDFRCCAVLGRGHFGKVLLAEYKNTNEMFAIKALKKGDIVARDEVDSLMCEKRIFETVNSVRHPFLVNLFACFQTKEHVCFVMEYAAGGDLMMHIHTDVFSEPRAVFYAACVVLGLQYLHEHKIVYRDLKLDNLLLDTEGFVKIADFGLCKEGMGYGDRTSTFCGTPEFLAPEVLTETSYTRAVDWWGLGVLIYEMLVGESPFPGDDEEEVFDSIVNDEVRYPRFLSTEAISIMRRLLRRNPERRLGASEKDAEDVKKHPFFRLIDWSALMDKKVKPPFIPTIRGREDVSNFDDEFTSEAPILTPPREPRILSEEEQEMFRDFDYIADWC
The target of data set [1] is T1, cAPK Cα (Homo sapiens, UniProt P17612). Nature of the data set: Competition: displacement of ARC-TAMRA from complex with cAPK Cα, fluorescence anisotropy, LS 55. It is filed as binding. Also on record: purchased Biaffin AG. How it is done: A complex was created between 10 nM of ARC-TAMRA and 10 nM of cAPK Cα in 0.500 ml of buffer (50 mM HEPES, 200 mM NaCl, 0.5 g/l BSA, 5 mM DTT, 0.05% TWEEN 20, MilliQ water; pH 7.4). Different compounds were screened for binding to cAPK Cα against fixed concentrations of ARC-TAMRA and cAPK Cα (FIG. 4). 1-3 μl quantities of various dilutions of the solution of the inhibitor were added to 500 μl solution of ARC-TAMRA complex with the kinase and fluorescence anisotropy was measured after each addition of the […] after 10 min delay time.
For orientation: In fluorescence polarisation assays a small probe gives low polarisation when free and higher when bound to something large.

The target in data set [2] is T1, cAPK Cα. As to the kind of experiment: High-throughput displacement of ARC-TAMRA from cAPK Cα, PHERAstar.
Method: To determine the inhibition constant (Ki), 3-fold serial dilutions of a given inhibitor are performed analogously as for titration experiments. Before the measurement of fluorescence anisotropies the plate is rotated (400 rpm) for 10 minutes at 30° C.
Another data set has as its target MSK1 (Homo sapiens, UniProt O75582). Nature of the data set: Kinase selectivity panel. The following applies: inhibitor 1 μM; ATP 20 μM; read-out: residual activity (%) MSK1. It counts as biochemical. In a few lines:
(§2)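 At 30° C, activity of this kinase was assayed within a broader panel of 52 enzymes.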

A further data set addresses PKA (Homo sapiens, UniProt P17612). As to the kind of experiment: Kinase selectivity panel. It counts as biochemical. The note with it: inhibitor 1 μM; ATP 20 μM; read-out: residual activity (%) PKA. In a few lines: as §2
The target of the next data set is ROCK-II (Homo sapiens, UniProt O75116). Nature of the data set: Kinase selectivity panel. It is filed as biochemical. The following applies: inhibitor 1 μM; ATP 20 μM; read-out: residual activity (%) ROCK-II. The procedure, abridged:
as §2

Sequence of PKBΔph (P31749 whole entry, stated change not applied): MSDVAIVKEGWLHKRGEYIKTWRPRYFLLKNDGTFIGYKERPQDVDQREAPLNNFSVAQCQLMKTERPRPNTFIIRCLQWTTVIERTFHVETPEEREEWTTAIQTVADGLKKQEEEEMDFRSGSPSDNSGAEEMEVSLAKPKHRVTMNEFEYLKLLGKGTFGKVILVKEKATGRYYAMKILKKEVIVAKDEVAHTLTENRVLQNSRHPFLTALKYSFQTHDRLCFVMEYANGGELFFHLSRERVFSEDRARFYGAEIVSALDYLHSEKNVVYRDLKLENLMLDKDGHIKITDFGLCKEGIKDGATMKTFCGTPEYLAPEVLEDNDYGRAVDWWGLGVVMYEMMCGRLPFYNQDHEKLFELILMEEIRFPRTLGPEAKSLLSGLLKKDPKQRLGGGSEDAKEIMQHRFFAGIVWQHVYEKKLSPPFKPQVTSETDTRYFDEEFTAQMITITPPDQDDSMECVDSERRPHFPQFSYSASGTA
Sequence of MSK1 (O75582 whole entry, species assumed): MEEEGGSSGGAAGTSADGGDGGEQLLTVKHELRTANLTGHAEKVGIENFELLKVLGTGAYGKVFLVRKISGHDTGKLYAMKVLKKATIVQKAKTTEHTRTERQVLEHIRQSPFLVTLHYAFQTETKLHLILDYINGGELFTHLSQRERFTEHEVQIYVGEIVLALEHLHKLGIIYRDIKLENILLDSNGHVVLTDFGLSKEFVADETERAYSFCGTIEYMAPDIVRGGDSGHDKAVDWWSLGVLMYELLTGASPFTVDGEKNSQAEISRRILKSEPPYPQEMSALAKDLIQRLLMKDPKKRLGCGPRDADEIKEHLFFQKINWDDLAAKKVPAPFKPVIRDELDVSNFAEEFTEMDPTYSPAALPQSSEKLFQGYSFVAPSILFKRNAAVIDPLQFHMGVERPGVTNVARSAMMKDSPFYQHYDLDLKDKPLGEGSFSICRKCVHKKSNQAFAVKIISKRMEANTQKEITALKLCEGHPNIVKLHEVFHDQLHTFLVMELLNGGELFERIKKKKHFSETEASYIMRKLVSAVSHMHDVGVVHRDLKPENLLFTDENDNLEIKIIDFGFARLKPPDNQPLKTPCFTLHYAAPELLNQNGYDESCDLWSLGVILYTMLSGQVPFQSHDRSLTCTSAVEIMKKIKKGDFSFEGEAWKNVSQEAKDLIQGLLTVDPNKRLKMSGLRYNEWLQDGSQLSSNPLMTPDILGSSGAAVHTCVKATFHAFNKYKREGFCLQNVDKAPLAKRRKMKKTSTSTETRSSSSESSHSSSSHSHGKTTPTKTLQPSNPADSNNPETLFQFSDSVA
Sequence of ROCK-II (O75116 whole entry, species assumed): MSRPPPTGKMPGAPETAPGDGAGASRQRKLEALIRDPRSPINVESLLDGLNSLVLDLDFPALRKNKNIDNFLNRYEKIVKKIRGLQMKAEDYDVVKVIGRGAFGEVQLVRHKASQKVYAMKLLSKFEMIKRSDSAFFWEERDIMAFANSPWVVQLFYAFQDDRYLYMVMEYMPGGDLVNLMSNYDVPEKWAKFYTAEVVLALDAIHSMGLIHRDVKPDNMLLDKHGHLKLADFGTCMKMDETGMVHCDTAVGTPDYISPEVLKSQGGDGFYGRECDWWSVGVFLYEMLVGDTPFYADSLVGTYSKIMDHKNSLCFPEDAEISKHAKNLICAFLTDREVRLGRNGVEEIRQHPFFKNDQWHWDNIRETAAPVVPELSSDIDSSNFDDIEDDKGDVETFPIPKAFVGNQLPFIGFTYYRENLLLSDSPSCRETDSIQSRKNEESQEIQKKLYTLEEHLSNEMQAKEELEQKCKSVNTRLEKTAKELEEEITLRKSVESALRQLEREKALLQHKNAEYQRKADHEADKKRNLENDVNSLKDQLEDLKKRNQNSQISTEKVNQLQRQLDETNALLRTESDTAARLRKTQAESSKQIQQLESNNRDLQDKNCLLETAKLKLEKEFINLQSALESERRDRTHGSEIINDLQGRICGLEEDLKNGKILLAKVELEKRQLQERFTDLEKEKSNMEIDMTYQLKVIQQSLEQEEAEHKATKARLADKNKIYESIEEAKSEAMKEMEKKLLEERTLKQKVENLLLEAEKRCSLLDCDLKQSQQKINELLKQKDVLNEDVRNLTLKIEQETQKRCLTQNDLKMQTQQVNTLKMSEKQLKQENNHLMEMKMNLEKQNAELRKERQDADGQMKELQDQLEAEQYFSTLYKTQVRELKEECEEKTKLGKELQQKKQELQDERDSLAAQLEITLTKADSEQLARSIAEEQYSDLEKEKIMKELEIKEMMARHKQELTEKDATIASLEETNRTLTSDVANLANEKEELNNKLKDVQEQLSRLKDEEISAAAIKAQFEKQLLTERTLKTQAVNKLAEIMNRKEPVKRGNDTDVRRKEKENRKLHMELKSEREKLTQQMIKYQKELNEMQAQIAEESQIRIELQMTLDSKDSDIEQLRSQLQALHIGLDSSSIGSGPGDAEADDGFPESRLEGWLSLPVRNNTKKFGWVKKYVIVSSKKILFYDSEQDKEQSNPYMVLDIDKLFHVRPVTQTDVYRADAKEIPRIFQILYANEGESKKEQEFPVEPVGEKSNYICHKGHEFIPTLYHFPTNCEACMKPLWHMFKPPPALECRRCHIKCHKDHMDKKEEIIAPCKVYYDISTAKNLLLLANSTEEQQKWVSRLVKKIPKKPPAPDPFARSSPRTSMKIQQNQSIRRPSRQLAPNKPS

Turning to `N=C(N)NCCC[C@@H](NC(=O)[C@@H](CCCNC(=N)N)NC(=O)[C@@H](CCCNC(=N)N)NC(=O)[C@@H](CCCNC(=N)N)NC(=O)[C@@H](CCCNC(=N)N)NC(=O)[C@@H](CCCNC(=N)N)NC(=O)CCCCCNC(=O)[C@H]1O[C@@H](n2cnc3c(N)ncnc32)[C@H](O)[C@@H]1O)C(N)=O` [Compound 5, AdcAhx(D-Arg)6-NH2], the remaining activity at 1 µM in the data set with PKBb and with PRK2 was ≤ 3% in each case. Also, the residual activity with PKBΔph is given as ≤ 3%. In addition, the pIC50 at cAPK Cα [1] (10 nM ARC-TAMRA, 10 nM cAPK Cα) is 7.46. At cAPK Cα [1] (cAPK Cα displacement, read-out: Kd of inhibitor (characterized with the probe)), the negative logarithm of the Kd (pKd) was 8.60. In addition, the results for the negative logarithm of the Ki (pKi) at cAPK Cα [1] (read-out: Ki (competitive binding)) and on cAPK Cα [2] were 8.60 and 8.96, respectively.
As to `N=C(N)NCCC[C@@H](NC(=O)[C@@H](CCCNC(=N)N)NC(=O)[C@@H](CCCNC(=N)N)NC(=O)[C@@H](CCCNC(=N)N)NC(=O)[C@@H](CCCNC(=N)N)NC(=O)[C@@H](CCCNC(=N)N)NC(=O)CCCCCNCCNS(=O)(=O)c1cccc2cnccc12)C(N)=O` [Compound 26, H9-Hex(D-Arg)6-NH2], the figures for the remaining activity at 1 µM in the data set with MSK1, in the data set with PKA and with ROCK-II were 1%, < 10% and 0%, respectively.
